Results reported in PMC7788135, “OsMS188 Is a Key Regulator of Tapetum Development and Sporopollenin Synthesis in Rice”.

T1: MBP-OsMS188 (Oryza sativa (rice; Nipponbare?), UniProt Q7XQN1 1-372)
T1 sequence: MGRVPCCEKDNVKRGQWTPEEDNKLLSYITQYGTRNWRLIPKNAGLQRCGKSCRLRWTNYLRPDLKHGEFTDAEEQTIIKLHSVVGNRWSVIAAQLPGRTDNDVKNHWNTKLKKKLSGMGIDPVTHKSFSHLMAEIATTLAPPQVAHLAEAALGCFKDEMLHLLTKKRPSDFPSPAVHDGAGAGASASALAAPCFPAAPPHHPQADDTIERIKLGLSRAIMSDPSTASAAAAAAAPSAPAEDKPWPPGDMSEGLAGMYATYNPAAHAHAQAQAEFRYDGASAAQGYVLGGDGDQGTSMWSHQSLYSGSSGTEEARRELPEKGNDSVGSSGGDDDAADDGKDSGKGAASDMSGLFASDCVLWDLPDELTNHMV

T2: MBP-EAT1 (Oryza sativa (rice; Nipponbare?), UniProt Q7X8R0 1-464)
T2 sequence: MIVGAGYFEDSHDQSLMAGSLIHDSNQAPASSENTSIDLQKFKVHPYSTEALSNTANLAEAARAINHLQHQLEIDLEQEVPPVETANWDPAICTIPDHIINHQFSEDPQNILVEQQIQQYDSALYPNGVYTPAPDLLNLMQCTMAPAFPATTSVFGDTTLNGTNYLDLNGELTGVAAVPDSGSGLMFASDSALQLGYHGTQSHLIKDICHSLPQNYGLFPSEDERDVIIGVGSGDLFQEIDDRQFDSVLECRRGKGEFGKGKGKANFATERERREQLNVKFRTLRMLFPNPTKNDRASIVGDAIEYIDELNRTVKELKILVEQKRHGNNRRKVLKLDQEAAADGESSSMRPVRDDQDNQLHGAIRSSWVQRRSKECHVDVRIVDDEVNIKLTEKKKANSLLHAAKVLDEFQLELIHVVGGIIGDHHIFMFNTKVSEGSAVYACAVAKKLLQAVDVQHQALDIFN

T3: MBP-bHLH142 (Oryza sativa (rice; Nipponbare?), UniProt Q5JNS0 1-379)
T3 sequence: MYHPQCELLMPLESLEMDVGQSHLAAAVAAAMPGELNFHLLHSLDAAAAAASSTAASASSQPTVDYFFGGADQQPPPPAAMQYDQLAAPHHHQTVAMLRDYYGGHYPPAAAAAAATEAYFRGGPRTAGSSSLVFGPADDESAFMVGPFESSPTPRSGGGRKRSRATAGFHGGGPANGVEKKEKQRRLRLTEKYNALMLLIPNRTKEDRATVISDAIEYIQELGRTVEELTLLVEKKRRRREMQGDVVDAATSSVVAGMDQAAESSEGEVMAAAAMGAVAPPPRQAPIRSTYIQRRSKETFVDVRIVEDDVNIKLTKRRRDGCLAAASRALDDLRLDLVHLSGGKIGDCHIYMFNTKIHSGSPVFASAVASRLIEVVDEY


Columns and labels:
MBP-OsMS188 = target: T1, MBP-OsMS188; experiment: EMSA; unlabelled probe competes; LightShift Chemiluminescent EMSA Kit (Thermo); buffer, salt, pH and temperature not stated; details: protein: recombinant; label: biotin; blunt
MBP-TDR = MBP-TDR (Oryza sativa (rice; Nipponbare?), UniProt Q6YUS3 1-552); experiment: EMSA; unlabelled probe (5- to 200-fold) competes; LightShift Chemiluminescent EMSA Kit (Thermo); buffer, salt, pH and temperature not stated
MBP-EAT1 = target: T2, MBP-EAT1; experiment: EMSA; shifted band not reduced by unlabelled probe; authors conclude no direct binding; LightShift Chemiluminescent EMSA Kit (Thermo); buffer, salt, pH and temperature not stated; details: protein: recombinant; chain copies: 2; label: biotin; blunt
MBP-bHLH142 = target: T3, MBP-bHLH142; experiment: as above; details: protein: recombinant; chain copies: 2; label: biotin; blunt

Binder	binding result (MBP-OsMS188)	other results
DPW promoter probe (dsDNA) DNA 1: AGGGAACTGAATCTTTTGCATGAACCACTGCATTTCCAAGAAGTGCACGAGCTTTGCA DNA 2: TGCAAAGCTCGTGCACTTCTTGGAAATGCAGTGGTTCATGCAAAAGATTCAGTTCCCT	binds	
OsPKS2 promoter probe (dsDNA) DNA 1: TACCTGCTCTCCACCAACCATTCTTTCCATGCATTCGTTGCCTCTCAACTGCACCAGCT DNA 2: AGCTGGTGCAGTTGAGAGGCAACGAATGCATGGAAAGAATGGTTGGTGGAGAGCAGGTA	binds	
OsPKS1 promoter probe (dsDNA) DNA 1: GCAAAAATGCAGGGTAAAACCAAAGAAGGGTGGAAGGAATGAACCTTCTGCTCCCCCC DNA 2: GGGGGGAGCAGAAGGTTCATTCCTTCCACCCTTCTTTGGTTTTACCCTGCATTTTTGC	binds	
ABCG15 promoter probe (dsDNA) DNA 1: AGTCTGCTTGGCGCTCTCTCTCTGAACCTGTCACTCTTTTTTTCTGTGTCT DNA 2: AGACACAGAAAAAAAGAGTGACAGGTTCAGAGAGAGAGCGCCAAGCAGACT	binds	
CYP703A3 promoter probe (dsDNA) DNA 1: GATATCACATGACTTGTACATAATGCCTAAAATGTGGATATCTGACCAGGTGCTTGGTG DNA 2: CACCAAGCACCTGGTCAGATATCCACATTTTAGGCATTATGTACAAGTCATGTGATATC	binds	
OsMS188 promoter probe (dsDNA) DNA 1: GAGAATGCATTTGGTGGTCGTGTGTTGTTTGTAACAACTGGGGAGC DNA 2: GCTCCCCAGTTGTTACAAACAACACACGACCACCAAATGCATTCTC		binding result (MBP-TDR): binds; binding result (MBP-EAT1): no binding; binding result (MBP-bHLH142): no binding
CYP704B2 promoter probe (dsDNA) DNA 1: AATAGCCTATTCAGATGAAGTAGAATTCAGGTGAAGTAGAAACCAACTACTTTGGGTTC DNA 2: GAACCCAAAGTAGTTGGTTTCTACTTCACCTGAATTCTACTTCATCTGAATAGGCTATT	binds	
